Where a chain is given by its changes, count along the chain named. Values belong to the binder of their own block, whether it stands above or below them.
What was measured:
human CLDN5 = molecular target: T1, human CLDN5 (human, UniProt O00501 1-218); experiment: flow cytometry on transfected cells
T1 construct: whole, on cells
T1 sequence (looked up): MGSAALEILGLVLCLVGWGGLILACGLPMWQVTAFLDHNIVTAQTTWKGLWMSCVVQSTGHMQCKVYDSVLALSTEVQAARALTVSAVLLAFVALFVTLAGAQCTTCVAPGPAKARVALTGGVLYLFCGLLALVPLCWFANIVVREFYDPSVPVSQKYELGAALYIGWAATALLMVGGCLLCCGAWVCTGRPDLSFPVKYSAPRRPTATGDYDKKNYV

human CLDN8 = molecular target: T2, human CLDN8 (human, UniProt P56748 1-225); experiment: flow cytometry on transfected cells
T2 construct: whole, on cells
T2 sequence (looked up): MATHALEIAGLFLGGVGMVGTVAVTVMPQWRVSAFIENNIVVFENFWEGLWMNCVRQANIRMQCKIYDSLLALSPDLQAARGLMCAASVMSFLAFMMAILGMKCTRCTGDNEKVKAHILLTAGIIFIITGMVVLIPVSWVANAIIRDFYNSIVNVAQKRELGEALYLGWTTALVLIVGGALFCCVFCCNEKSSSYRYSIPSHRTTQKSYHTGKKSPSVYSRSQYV

human CLDN17 = molecular target: T3, human CLDN17 (human, UniProt P56750 1-224); experiment: flow cytometry on transfected cells
T3 construct: whole, on cells
T3 sequence (looked up): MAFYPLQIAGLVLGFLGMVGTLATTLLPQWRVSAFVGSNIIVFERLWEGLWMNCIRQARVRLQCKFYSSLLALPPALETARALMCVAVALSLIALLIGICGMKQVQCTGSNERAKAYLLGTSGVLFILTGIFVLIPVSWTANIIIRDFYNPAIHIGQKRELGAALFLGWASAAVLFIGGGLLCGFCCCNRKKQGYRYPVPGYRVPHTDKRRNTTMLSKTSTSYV

human CLDN6 = molecular target: T4, human CLDN6 (human, UniProt P56747 1-220); experiment: flow cytometry on transfected HEK293E cells
T4 construct: also called Claudin 6
T4 sequence: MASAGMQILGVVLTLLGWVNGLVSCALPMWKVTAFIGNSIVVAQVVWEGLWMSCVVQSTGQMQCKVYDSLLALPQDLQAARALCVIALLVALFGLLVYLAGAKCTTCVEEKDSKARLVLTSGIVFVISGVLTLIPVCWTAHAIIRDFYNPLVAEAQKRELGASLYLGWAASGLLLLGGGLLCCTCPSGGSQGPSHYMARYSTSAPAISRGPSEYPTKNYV
Protocol: (§1) The following experiments used to screen CLDN6 binding domains were generally performed as follows. HEK293T or HEK293E cells were respectively stably or transiently transfected to express CLDN6, CLND9, or other targets of interest. 48 hours post transfection, cells were harvested and incubated with dilutions of the indicated test articles for 1 hour at 4° C. […] Binding was then assessed via flow cytometry.

CLDN6 I143V isotype = molecular target: T5, CLDN6 I143V isotype (human, UniProt P56747 1-220); experiment: flow cytometry on transfected HEK293E cells
T5 chain: T4 sequence with I143V
Protocol: as §1

mouse CLDN6 = molecular target: T6, mouse CLDN6 (mouse, UniProt Q9Z262 1-219); experiment: flow cytometry on transfected HEK293E cells
T6 construct: whole, on cells; also called murine CLDN6
T6 sequence (looked up): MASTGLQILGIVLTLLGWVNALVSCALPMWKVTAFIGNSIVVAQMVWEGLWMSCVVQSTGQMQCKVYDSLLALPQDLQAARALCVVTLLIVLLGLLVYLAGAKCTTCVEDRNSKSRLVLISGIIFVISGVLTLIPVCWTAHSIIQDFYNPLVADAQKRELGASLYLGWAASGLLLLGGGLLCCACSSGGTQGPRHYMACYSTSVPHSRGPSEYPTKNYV
Protocol: as §1

B1: XENP34233 (C6-30_H1L1 x CD3 bsAb in the 2+1 Fab2-scFv-Fc format) (bispecific antibody)
heavy 1: QVQLVQSGAEVKKPGASVKVSCKTSGYTFTEYTMHWVRQAPGQSLEWMGGIDPNNGNTHYNQKFQGRVTITVDKSASTAYMELSSLRSEDTAVYYCARIYYFGRLYFDFWGAGTLVTVSSASTKGPSVFPLAPSSKSTSGGTAALGCLVKDYFPEPVTVSWNSGALTSGVHTFPAVLQSSGLYSLSSVVTVPSSSLGTQTYICNVNHKPSDTKVDKKVEPKSCDKTHTCPPCPAPPVAGPSVFLFPPKPKDTLMISRTPEVTCVVVDVKHEDPEVKFNWYVDGVEVHNAKTKPREEEYNSTYRVVSVLTVLHQDWLNGKEYKCKVSNKALPAPIEKTISKAKGQPREPQVYTLPPSREEMTKNQVSLTCDVSGFYPSDIAVEWESDGQPENNYKTTPPVLDSDGSFFLYSKLTVDKSRWEQGDVFSCSVMHEALHNHYTQKSLSLSPGK
heavy 2: QVQLVQSGAEVKKPGASVKVSCKTSGYTFTEYTMHWVRQAPGQSLEWMGGIDPNNGNTHYNQKFQGRVTITVDKSASTAYMELSSLRSEDTAVYYCARIYYFGRLYFDFWGAGTLVTVSSASTKGPSVFPLAPSSKSTSGGTAALGCLVKDYFPEPVTVSWNSGALTSGVHTFPAVLQSSGLYSLSSVVTVPSSSLGTQTYICNVNHKPSNTKVDKKVEPKSCGGGGSGGGGSQAVVTQEPSLTVSPGGTVTLTCGSSTGAVTTSNYANWVQQKPGKSPRGLIGGTNKRAPGVPARFSGSLLGGKAALTISGAQPEDEADYYCALWYSNHWVFGGGTKLTVLGKPGSGKPGSGKPGSGKPGSEVQLVESGGGLVQPGGSLRLSCAASGFTFSTYAMNWVRQAPGKGLEWVGRIRSKYNNYATYYADSVKGRFTISRDDSKNTLYLQMNSLRAEDTAVYYCVRHGNFGDSYVSWFAYWGQGTLVTVSSGGGGSGGGGSKTHTCPPCPAPPVAGPSVFLFPPKPKDTLMISRTPEVTCVVVDVKHEDPEVKFNWYVDGVEVHNAKTKPREEQYNSTYRVVSVLTVLHQDWLNGKEYKCKVSNKALPAPIEKTISKAKGQPREPQVYTLPPSREQMTKNQVKLTCLVKGFYPSDIAVEWESNGQPENNYKTTPPVLDSDGSFFLYSKLTVDKSRWQQGNVFSCSVMHEALHNHYTQKSLSLSPGK
light: not shown
notes: copies: 1 + 1 + 2
binding result (human CLDN5): no binding
binding result (human CLDN8): no binding
binding result (human CLDN17): no binding
binding result (human CLDN6): binds
binding result (CLDN6 I143V isotype): binds
binding result (mouse CLDN6): binds

B2: XENP34229 (C6-30_H1L1 x CD3 bsAb in the 1+1 Fab-scFv-Fc format) (bispecific antibody)
heavy: B1 heavy 1
scFv-Fc: QAVVTQEPSLTVSPGGTVTLTCGSSTGAVTTSNYANWVQQKPGKSPRGLIGGTNKRAPGVPARFSGSLLGGKAALTISGAQPEDEADYYCALWYSNHWVFGGGTKLTVLGKPGSGKPGSGKPGSGKPGSEVQLVESGGGLVQPGGSLRLSCAASGFTFSTYAMNWVRQAPGKGLEWVGRIRSKYNNYATYYADSVKGRFTISRDDSKNTLYLQMNSLRAEDTAVYYCVRHGNFGDSYVSWFAYWGQGTLVTVSSEPKSSDKTHTCPPCPAPPVAGPSVFLFPPKPKDTLMISRTPEVTCVVVDVKHEDPEVKFNWYVDGVEVHNAKTKPREEQYNSTYRVVSVLTVLHQDWLNGKEYKCKVSNKALPAPIEKTISKAKGQPREPQVYTLPPSREQMTKNQVKLTCLVKGFYPSDIAVEWESNGQPENNYKTTPPVLDSDGSFFLYSKLTVDKSRWQQGNVFSCSVMHEALHNHYTQKSLSLSPGK
light: not shown
notes: copies: 1 + 1 + 1
binding result (human CLDN5): no binding
binding result (human CLDN8): no binding
binding result (human CLDN17): no binding
binding result (human CLDN6): binds
binding result (CLDN6 I143V isotype): binds
binding result (mouse CLDN6): binds

The next lines start with the values.

binding result (human CLDN5): no binding
binding result (human CLDN8): no binding
binding result (human CLDN17): no binding
binding result (human CLDN6): binds
binding result (CLDN6 I143V isotype): binds
binding result (mouse CLDN6): binds
B3: XENP34638 (C6-30_H2L1 x CD3 bsAb in the 2+1 Fab2-scFv-Fc format) (bispecific antibody)
heavy 1: EVQLVQSGAEVKKPGESLRISCKTSGYTFTEYTMHWVRQMPGKSLEWMGGIDPNNGNTHYNQKFQGHVTISVDKSISTAYLQWSSLKASDTAMYYCARIYYFGRLYFDFWGAGTLVTVSSASTKGPSVFPLAPSSKSTSGGTAALGCLVKDYFPEPVTVSWNSGALTSGVHTFPAVLQSSGLYSLSSVVTVPSSSLGTQTYICNVNHKPSDTKVDKKVEPKSCDKTHTCPPCPAPPVAGPSVFLFPPKPKDTLMISRTPEVTCVVVDVKHEDPEVKFNWYVDGVEVHNAKTKPREEEYNSTYRVVSVLTVLHQDWLNGKEYKCKVSNKALPAPIEKTISKAKGQPREPQVYTLPPSREEMTKNQVSLTCDVSGFYPSDIAVEWESDGQPENNYKTTPPVLDSDGSFFLYSKLTVDKSRWEQGDVFSCSVMHEALHNHYTQKSLSLSPGK
heavy 2: EVQLVQSGAEVKKPGESLRISCKTSGYTFTEYTMHWVRQMPGKSLEWMGGIDPNNGNTHYNQKFQGHVTISVDKSISTAYLQWSSLKASDTAMYYCARIYYFGRLYFDFWGAGTLVTVSSASTKGPSVFPLAPSSKSTSGGTAALGCLVKDYFPEPVTVSWNSGALTSGVHTFPAVLQSSGLYSLSSVVTVPSSSLGTQTYICNVNHKPSNTKVDKKVEPKSCGGGGSGGGGSQAVVTQEPSLTVSPGGTVTLTCGSSTGAVTTSNYANWVQQKPGKSPRGLIGGTNKRAPGVPARFSGSLLGGKAALTISGAQPEDEADYYCALWYSNHWVFGGGTKLTVLGKPGSGKPGSGKPGSGKPGSEVQLVESGGGLVQPGGSLRLSCAASGFTFSTYAMNWVRQAPGKGLEWVGRIRSKYNNYATYYADSVKGRFTISRDDSKNTLYLQMNSLRAEDTAVYYCVRHGNFGDSYVSWFAYWGQGTLVTVSSGGGGSGGGGSKTHTCPPCPAPPVAGPSVFLFPPKPKDTLMISRTPEVTCVVVDVKHEDPEVKFNWYVDGVEVHNAKTKPREEQYNSTYRVVSVLTVLHQDWLNGKEYKCKVSNKALPAPIEKTISKAKGQPREPQVYTLPPSREQMTKNQVKLTCLVKGFYPSDIAVEWESNGQPENNYKTTPPVLDSDGSFFLYSKLTVDKSRWQQGNVFSCSVMHEALHNHYTQKSLSLSPGK
light: not shown
notes: copies: 1 + 1 + 2

binding result (human CLDN5): no binding
binding result (human CLDN8): no binding
binding result (human CLDN17): no binding
binding result (human CLDN6): binds
binding result (CLDN6 I143V isotype): binds
binding result (mouse CLDN6): binds
B4: XENP34637 (C6-30_H2L1 x CD3 bsAb in the 1+1 Fab-scFv-Fc format) (bispecific antibody)
heavy: B3 heavy 1
scFv-Fc: not shown
light: not shown
notes: copies: 1 + 1 + 1

From patent US20240400675A1 (published 2024)
